Patent publication US10736941B2, “Cell membrane-permeating peptide” (NATIONAL UNIVERSITY CORPORATION KUMAMOTO UNIVERSITY, priority 2015, dated 2020)
Where no end group is shown, it is not given here.

How the values were obtained:
Caco-2 cells [1] = experiment: Competitive inhibition of DNP-presenting phage permeation through Caco-2 cells by synthetic unlabeled DNP peptide; type: cell-based, human; conditions: unlabeled DNP 10 μM
Procedure: The experiment of permeation using Caco-2 cells was conducted according to a report of Ohura et al. (J. Pharm. Sci. Vol 100, No. 9, 2011). Each phage stock was prepared by diluting with an HBSS buffer so as to give a concentration of 5×10^11 pfu/mL. Caco-2 cells placed in Transwell (manufactured by Coring) were cultured, and formation of sufficient tight junction was confirmed, then, Transwell was transferred to a new 6-well plate. To the apical (AP) side of the cell, 2 mL of the phage preparation liquid was added and incubated at 37° C. (this time point t=0 min). When reached each time point, Transwell was transferred to a new 6-well plate. The time point was 1, 3, 5, 10 and 30 min. The sample at the basal (BA) side at each time point was kept on ice. When reached 30 min, Transwell was transferred to a new 6-well plate, and the HBSS buffer at the AP side was aspirated, then, the cells were recovered into a centrifugal tube. The titre at the BA side and the titre in the supernatant at each time point were measured by qPCR. […]
The DNP-presenting phage permeating Caco-2 cells was measured in the presence or in the absence of the unlabeled DNP, in the same manner as in Example 1. […]

Caco-2 cells [2] = experiment: Influence on tight junction of Caco-2 cells (TEER, Millicell ERS-2); type: cell-based, human; conditions: Caco-2 cells treated for 24 hours, 10 μM
Procedure: For the influence on tight junction, Caco-2 cells were cultured in Transwell, then, 2 mL of 0-10 μM peptide DNP was added at the apical (AP) side, and 1, 2, 3, 6, 12 and 24 hours after addition, the electric resistance value (TEER) was measured using Millicell ERS-2.
(§1) Caco-2 cells were treated for 24 hours using the cyclic peptide DNP having highest permeability at a concentration of 10 μM, but weakening of cell toxicity and tight junction was not observed.

[3] = test system: mouse small intestine closed loop; experiment: Promotion of insulin absorption by co-administration of cyclic peptide, mouse small intestine closed loop, blood glucose level; type: in vivo; conditions: DNPGNET 5 mM co-administered with insulin 10 IU/kg into mouse small intestine loop, versus insulin alone, over 60 minutes
Procedure: The influence on insulin absorption by co-administration of the cyclic peptide of the present invention was studied by measuring the blood glucose level.
We asked GenScript Japan Inc. to synthesize a cyclic peptide shown in FIG. 4B containing a sequence of DNPGNET (SEQ TD No: 5).
A peptide was prepared by using 100 μL of a hot HBSS solution so that the concentration of insulin was 10 IU/kg and the concentration of DNPGNET was 5 mM and incubated at 37° C. for 1 hour, and the resultant was used in the co-administration group. For the insulin single administration group, a sample was prepared by using 100 μL of a hot HBSS solution so that the concentration of insulin was 10 IU/kg and incubated at 37° C. for 1 hour, and the resultant peptide was used. In the same manner as in Example 6, a mouse small intestine closed loop was produced, then, the DNPGNET+insulin solution or the insulin solution prepared previously was administered into the loop. The time of administration was 0 min, and the blood glucose level was measured over a time of 60 minutes by using ACCU-CHEK (registered trademark) Aviva Nano.

Caco-2 cells [4] = experiment: Cell toxicity to Caco-2 cells (Cell Counting kit 8); type: cell-based, human; conditions: Caco-2 cells treated for 24 hours, 10 μM
Procedure: For cell toxicity, 100 μL of 0-10 μM DNP peptide was added to Caco-2 cells cultured in a 96-well plate, and the cell survival rates after 1, 6 and 24 hours were measured using Cell Counting kit 8 (DOJINDO Laboratories).
as §1

DNPGNET (also: cyclic peptide, mode of cyclisation not given here)
competitive inhibition of DNP-presenting phage permeating Caco-2 cells (Caco-2 cells [1]): competitive inhibition occurs
weakening of tight junction (TEER) (Caco-2 cells [2]): not observed
insulin absorption (blood glucose level) [3]: absorption of insulin was promoted
cell toxicity (Caco-2 cells [4]): not observed
